Results from patent publication US20190153111A1.

Key:
[1] = target: Human FcγRIIIA 158F (human) (UniProt P08637); experiment: SPR (T100), biotinylated receptor on streptavidin chip, equilibrium binding, 1:1 model
[2] = target: Human FcγRIIIA 158V (human) (UniProt P08637); experiment: as above
Human FcγRIIIA 158V (human), sequence (P08637 other isoform, or with tags, fused parts or gaps): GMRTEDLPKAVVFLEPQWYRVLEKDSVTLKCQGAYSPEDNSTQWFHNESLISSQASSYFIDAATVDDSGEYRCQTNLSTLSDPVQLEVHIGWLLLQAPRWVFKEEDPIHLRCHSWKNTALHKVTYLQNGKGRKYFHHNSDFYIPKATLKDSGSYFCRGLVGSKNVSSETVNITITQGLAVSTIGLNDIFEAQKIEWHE

Human FcγRIIIA 158F (human), sequence (P08637 17-199 limits assumed): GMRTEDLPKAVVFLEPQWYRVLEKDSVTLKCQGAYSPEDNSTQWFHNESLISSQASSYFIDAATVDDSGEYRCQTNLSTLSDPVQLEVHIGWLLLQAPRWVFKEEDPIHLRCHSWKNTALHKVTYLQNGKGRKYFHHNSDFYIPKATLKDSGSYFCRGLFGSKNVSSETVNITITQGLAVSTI

With HCD122 (antibody) the Ka [1] was 699000 M⁻¹ and the Ka [2] was 1.72e+06 M⁻¹.
